According to PMC3326314 (Nucleic Acids Research, 2011):
Changes are numbered by the printed parent chain.

Columns and labels:
Rif2 full length = target: T1, Rif2 full length (UniProt Q06208 1-395); assay: NMR titration
T1 sequence (looked up): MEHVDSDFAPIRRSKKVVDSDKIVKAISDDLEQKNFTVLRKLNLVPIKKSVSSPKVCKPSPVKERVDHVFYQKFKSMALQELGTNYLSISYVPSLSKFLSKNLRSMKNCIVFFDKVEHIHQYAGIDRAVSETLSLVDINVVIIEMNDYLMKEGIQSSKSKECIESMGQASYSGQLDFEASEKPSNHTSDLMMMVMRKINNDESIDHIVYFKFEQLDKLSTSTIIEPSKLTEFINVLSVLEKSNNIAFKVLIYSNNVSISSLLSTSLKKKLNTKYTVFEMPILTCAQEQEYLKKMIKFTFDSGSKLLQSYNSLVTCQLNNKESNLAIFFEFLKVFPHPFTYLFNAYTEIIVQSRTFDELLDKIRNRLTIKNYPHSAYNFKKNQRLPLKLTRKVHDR

Rap1[117-827] = target: T2, Rap1[117-827] (Saccharomyces cerevisiae, UniProt P11938 117-827); assay: SAXS and AUC
T2 sequence: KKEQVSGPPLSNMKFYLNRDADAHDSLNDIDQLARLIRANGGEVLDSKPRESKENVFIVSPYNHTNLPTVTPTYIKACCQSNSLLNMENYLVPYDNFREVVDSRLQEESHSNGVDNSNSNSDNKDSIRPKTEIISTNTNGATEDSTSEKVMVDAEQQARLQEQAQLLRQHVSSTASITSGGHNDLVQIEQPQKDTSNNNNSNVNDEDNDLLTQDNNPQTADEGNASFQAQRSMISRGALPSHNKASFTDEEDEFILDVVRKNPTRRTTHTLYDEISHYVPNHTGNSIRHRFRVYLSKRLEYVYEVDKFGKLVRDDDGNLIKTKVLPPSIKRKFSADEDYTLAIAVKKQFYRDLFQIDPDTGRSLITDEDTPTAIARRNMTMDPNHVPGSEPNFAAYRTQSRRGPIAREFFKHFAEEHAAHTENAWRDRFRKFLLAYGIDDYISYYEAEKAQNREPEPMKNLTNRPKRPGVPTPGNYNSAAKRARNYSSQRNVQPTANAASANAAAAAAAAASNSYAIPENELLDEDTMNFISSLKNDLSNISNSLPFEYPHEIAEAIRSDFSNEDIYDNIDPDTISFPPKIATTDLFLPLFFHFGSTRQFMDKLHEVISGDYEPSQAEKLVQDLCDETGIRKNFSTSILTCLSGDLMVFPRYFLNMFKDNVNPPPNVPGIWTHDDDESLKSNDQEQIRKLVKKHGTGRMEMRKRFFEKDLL

Rap1 WT (Rap1-fl) = target: T3, Rap1 WT (Rap1-fl) (Saccharomyces cerevisiae, UniProt P11938 1-827); assay: SAXS and AUC
T3 sequence: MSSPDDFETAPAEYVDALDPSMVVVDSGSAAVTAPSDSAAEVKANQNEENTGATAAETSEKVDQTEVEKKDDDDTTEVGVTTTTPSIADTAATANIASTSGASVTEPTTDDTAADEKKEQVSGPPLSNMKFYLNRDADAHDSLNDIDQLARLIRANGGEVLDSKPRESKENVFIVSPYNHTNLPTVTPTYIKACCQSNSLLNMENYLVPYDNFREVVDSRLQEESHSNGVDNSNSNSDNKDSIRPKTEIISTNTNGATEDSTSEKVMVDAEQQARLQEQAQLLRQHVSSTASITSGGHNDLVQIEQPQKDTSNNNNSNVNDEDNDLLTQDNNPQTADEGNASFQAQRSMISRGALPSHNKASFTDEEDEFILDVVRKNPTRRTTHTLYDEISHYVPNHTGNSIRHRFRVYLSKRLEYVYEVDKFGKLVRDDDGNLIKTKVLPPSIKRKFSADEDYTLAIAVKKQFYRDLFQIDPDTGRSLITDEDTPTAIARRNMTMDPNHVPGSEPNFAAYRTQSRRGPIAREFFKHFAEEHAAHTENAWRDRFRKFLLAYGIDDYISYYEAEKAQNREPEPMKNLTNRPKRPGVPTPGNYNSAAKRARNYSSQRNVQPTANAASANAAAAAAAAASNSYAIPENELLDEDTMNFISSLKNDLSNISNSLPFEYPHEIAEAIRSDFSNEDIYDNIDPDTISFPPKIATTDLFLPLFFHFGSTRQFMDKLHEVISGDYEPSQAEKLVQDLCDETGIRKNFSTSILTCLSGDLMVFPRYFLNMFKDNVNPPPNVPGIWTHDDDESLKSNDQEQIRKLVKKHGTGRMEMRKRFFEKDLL

Rap1[358-827] [1] = target: T4, Rap1[358-827] (Saccharomyces cerevisiae, UniProt P11938 358-827); assay: SAXS and AUC
T4 sequence: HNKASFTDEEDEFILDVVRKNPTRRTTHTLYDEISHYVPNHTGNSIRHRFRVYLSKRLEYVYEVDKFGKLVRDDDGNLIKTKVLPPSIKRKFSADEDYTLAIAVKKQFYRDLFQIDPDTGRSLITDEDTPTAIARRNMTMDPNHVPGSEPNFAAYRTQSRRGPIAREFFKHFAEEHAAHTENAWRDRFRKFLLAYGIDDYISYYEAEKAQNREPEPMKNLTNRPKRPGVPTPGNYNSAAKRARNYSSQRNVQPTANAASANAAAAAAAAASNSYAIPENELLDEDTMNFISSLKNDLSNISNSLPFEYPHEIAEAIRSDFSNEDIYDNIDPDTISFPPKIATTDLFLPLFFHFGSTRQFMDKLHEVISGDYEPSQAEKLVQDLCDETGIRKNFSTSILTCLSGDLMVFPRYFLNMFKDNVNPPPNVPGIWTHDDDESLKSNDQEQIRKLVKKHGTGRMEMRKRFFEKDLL

Rap1Δ[591-597] = target: T5, Rap1Δ[591-597] (Saccharomyces cerevisiae, UniProt P11938 1-827, del591-597); assay: EMSA
T5 sequence: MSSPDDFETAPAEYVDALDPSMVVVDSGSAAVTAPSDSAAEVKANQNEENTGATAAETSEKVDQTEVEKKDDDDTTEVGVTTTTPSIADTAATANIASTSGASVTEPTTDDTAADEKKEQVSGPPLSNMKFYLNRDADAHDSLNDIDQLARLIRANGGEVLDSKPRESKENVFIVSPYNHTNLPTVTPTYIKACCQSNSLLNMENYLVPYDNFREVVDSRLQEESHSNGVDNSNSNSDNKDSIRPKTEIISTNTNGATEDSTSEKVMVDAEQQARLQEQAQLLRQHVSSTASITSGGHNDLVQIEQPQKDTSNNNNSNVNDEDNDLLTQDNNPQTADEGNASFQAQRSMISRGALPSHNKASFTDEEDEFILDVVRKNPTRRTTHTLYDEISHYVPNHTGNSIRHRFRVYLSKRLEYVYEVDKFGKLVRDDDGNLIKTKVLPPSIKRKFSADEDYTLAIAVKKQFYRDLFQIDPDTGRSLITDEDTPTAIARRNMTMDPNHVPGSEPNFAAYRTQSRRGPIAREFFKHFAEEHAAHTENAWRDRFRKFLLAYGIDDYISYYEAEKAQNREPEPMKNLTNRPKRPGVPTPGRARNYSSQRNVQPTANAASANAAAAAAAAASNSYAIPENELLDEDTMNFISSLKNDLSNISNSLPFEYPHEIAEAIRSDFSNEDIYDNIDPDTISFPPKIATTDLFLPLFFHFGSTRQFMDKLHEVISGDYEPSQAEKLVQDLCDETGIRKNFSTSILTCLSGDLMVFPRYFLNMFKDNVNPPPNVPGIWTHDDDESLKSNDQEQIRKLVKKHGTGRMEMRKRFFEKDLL

Rap1[Y592A-K597A] = target: T6, Rap1[Y592A-K597A] (Saccharomyces cerevisiae, UniProt P11938 1-827, Y592A;K597A); assay: EMSA
T6 sequence: T3 sequence with Y592A, K597A

Rap1[358-827] [2] = target: T4, Rap1[358-827]; assay: X-ray crystallography

B1: Rap1[675-827] (domain or fragment, S. cerevisiae, UniProt P11938 675-827, looked up)
chain: SDFSNEDIYDNIDPDTISFPPKIATTDLFLPLFFHFGSTRQFMDKLHEVISGDYEPSQAEKLVQDLCDETGIRKNFSTSILTCLSGDLMVFPRYFLNMFKDNVNPPPNVPGIWTHDDDESLKSNDQEQIRKLVKKHGTGRMEMRKRFFEKDLL
B1: binds (Rif2 full length).

B2: 20-mer DNA duplex (AUC and SAXS) (dsDNA)
DNA 1: TCCTGGTGTGTGGGTGTGCG
DNA 2: GACGCACACCCACACACCAG
B2: binds (Rap1[117-827]); binds (Rap1 WT (Rap1-fl)); binds (Rap1[358-827] [1]).

B3: 21-mer telomeric DNA duplex (ITC and EMSA) (dsDNA)
DNA 1: TCCTGGTGTGTGGGTGTGCGG
DNA 2: GCACACCCACACACCAGGACC
B3: binds (Rap1Δ[591-597]); binds (Rap1[Y592A-K597A]).

B4: 31-mer crystallography duplex (dsDNA)
DNA 1: ACCTGGTGTGTGGGTGTTGTGTGGTGTTCAC
DNA 2: GTGTGAACACCACACAACACCCACACACCAG
B4: binds (Rap1[358-827] [2]).
